Experimental data published in patent US20170304437A1 (ALLIGATOR BIOSCIENCE, published 2017).

Experiments:
[1] = molecular target: T1, human CTLA4-Fc (Fitzgerald #30R-CD152) (human, UniProt P16410 38-152); test: binding ELISA, CTLA4-Fc coated, sample titrated, anti-human IgG Fc-HRP, chemiluminescence, data normalised to % [both panels]
T1 construct: Bought reagent; also called biotinylated-CTLA4; human CTLA-4 (Fitzgerald); not shown: Fc part of the bought fusion
Description: (§1) The plates were washed (Wash buffer: PBS+0.05% Tween 20 (PBST) Medicago #09-9410-100) and then blocked in PBST+3% BSA (Merck, #1.12018.0100). The plates were washed again and sample or controls (serially diluted 1/3 from […]) were added to the wells. The samples were incubated for 1 h at room temperature and then washed. Detection antibody, goat-anti-human IgG Fγy-HRP (Jackson, #109-035-098) was added and the plates were subsequently developed using SuperSignal Pico Chemiluminescent substrate (Thermo #37069) and detected with an Envision reader (Perkin Elmer).

[2] = molecular target: T1, human CTLA4-Fc (Fitzgerald #30R-CD152); test: binding ELISA, CTLA4-Fc coated, sample titrated, anti-human IgG Fc-HRP, chemiluminescence, data normalised to % [upper panel]
Description: as §1

[3] = molecular target: T2, CD28-Fc (provided by Simon Davis, Oxford University) (human, UniProt P10747 19-152, limits assumed); test: binding ELISA, coated CD28-Fc
T2 construct: Gift reagent; not shown: Fc part
Description: as §1

[4] = molecular target: T1, human CTLA4-Fc (Fitzgerald #30R-CD152); test: binding ELISA, CTLA4-Fc coated, sample titrated, anti-human IgG Fc-HRP, chemiluminescence, data normalised to % [lower panel]
Description: as §1

[5] = molecular target: T3, CD40-Fc (Ancell # 504-820) (human, UniProt P25942 21-193); test: binding ELISA, CD40-Fc coated, sample titrated, anti-human IgG Fc-HRP, chemiluminescence
T3 construct: Bought reagent; also called human CD40; not shown: Fc part of the bought fusion
Description: (§2) In short, 96-well flat bottom plate high binding plates (Greiner #655074) were coated with CD40-Fc (Ancell # 504-820) by incubating overnight at 4° C. The plates were washed (Wash buffer: PBS+0.05% Tween 20 (PBST) Medicago #09-9410-100) and then blocked in PBST+3% BSA (Merck, #1.12018.0100). The plates were washed again and samples or control (serial dilutions 1/2, starting at 0.2 ug/ml) were added to the wells.
(§3) The samples were incubated for 1 h at room temperature and then washed. Detection antibody, goat-anti-human IgG Fcγ-HRP (Jackson, #109-035-098) was added and the plates were subsequently developed using SuperSignal Pico Chemiluminescent substrate (Thermo #37069) and detected with Envision reader (Perkin Elmer). In FIG. 6A the binding of bispecific molecules at different concentrations to CD40 coated onto an ELISA plate is shown. In FIG. 6B, the binding of bispecific molecules at one fixed concentration (100 ng/ml) to CD40 coated onto an ELISA plate is shown. The bispecific molecules bind specifically to CD40.

[6] = molecular target: T3, CD40-Fc (Ancell # 504-820); test: binding ELISA, CD40-Fc coated, one fixed concentration (100 ng/ml), anti-human IgG Fc-HRP
Description: as §2, §3

[7] = molecular target: T3, CD40-Fc (Ancell # 504-820); test: binding ELISA, CD40-Fc coated, one fixed concentration, anti-human IgG Fc-HRP
Description: as §2, §3

T3 sequence (P25942 21-193 limits assumed): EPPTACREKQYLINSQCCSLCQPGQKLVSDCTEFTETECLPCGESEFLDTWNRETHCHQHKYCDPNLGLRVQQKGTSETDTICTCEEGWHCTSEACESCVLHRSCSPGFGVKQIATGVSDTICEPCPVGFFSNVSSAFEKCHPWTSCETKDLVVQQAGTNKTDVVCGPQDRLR
T1 sequence (P16410 38-152 limits assumed): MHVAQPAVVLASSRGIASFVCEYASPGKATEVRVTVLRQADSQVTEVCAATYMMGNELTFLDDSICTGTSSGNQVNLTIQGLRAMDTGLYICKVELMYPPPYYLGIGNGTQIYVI

B1: wild type human CD86 soluble extracellular domain (control in Examples 2 and 4) (ligand)
chain: APLKIQAYFNETADLPCQFANSQNQSLSELVVFWQDQENLVLNEVYLGKEKFDSVHSKYMGRTSFDSDSWTLRLHNLQIKDKGLYQCIIHHKKPTGMIRIHQMNSELSVLA
notes: probably the same Fc fusion as the clones; also called wild-type protein CD86; wild type CD86; not shown: the clones it is compared with were gamma2/gamma4 Fc fusions and detection was by anti
EC50 (read off the curve) [1]: ~0.5 µg/mL

B2: CD86 H79A mutant (Peach et al) control clone (ligand)
chain: APLKIQAYFNETADLPCQFANSQNQSLSELVVFWQDQENLVLNEVYLGKEKFDSVASKYMGRTSFDSDSWTLRLHNLQIKDKGLYQCIIHHKKPTGMIRIHQMNSELSVLA
notes: also called Prior Art; not shown: probably the same gamma2/gamma4 Fc fusion
EC50 (read off the curve) [1]: ~0.8 µg/mL

B3: CD86 mutant clone 1039, gamma2/gamma4 fusion (Fc fusion)
chain: APLKIQAYFNETADLPCQFANSQNLSLSELVVFWQDQENLVLNEVYLGKEKFDSVSSKYMGRTSFDSDSWTLRLHNLQIKDKGIYQCIIHHKKPSGMVKIHQMDSELSVLA
notes: Expressed as gamma2/gamma4 fusion, protein A purified; not shown: gamma2/gamma4 Fc
EC50 (read off the curve) [2]: ~0.04 µg/mL
binding result [3]: no binding

B4: CD86 mutant clone 1041, gamma2/gamma4 fusion (Fc fusion)
chain: APLKIQAYLNETADLPCQFANSQNLSLSELVVFWQDQENLVLNEVYLGKEKFDSVDSKYMGRTSFDSDSWTLRLHNLQIKDKGIYQCIIHHKKPTGLVKIHEMNSELSVLA
notes: as for B3
EC50 (read off the curve) [2]: ~0.09 µg/mL
binding result [3]: no binding

B5: CD86 mutant clone 1043, gamma2/gamma4 fusion (Fc fusion)
chain: APLKIQAYFNETADLPCQFANSQNLSLSELVVFWQDQENLVLNEVYLGKEKFDSVDSKYMGRTSFDSDSWTLRLHNLQIKDKGIYQCIIHHKKPTGMIKIHEMNSELSVLA
notes: as for B3
EC50 (read off the curve) [4]: ~0.04 µg/mL
binding result [3]: no binding

B6: CD86 mutant clone 1044, gamma2/gamma4 fusion (Fc fusion)
chain: APLKIQAYFNETADLPCQFANSQNLTLSELVVFWQDQENLVLNEVYLGKEKFDSVSSKYMGRTSFDSDSWTLRLHNLQIKDKGIYQCIIHHKKPTGMIKIHEMSSELSVLA
notes: as for B3
EC50 (read off the curve) [4]: ~0.03 µg/mL
binding result [3]: no binding

B7: CD86 mutant clone 1045, gamma2/gamma4 fusion (Fc fusion)
chain: APLKIQAYFNETADLPCQFANSQNLTLSELVVFWQDQENLVLNEVYLGKEKFDSVDSKYMGRTSFDSDSWTLRLHNLQIKDKGLYQCIIHHKKPTGLVKIHEMNSELSVLA
notes: as for B3
EC50 (read off the curve) [4]: ~0.05 µg/mL
binding result [3]: no binding

B8: CD86 mutant clone 1046, gamma2/gamma4 fusion (Fc fusion)
chain: APLKIQAYFNETADLPCQFANSQNQSLSELVVFWQDQENLVLNEVYLGKEKFDSVDSKYMGRTSFDSDSWTLRLHNLQIEDKGIYQCIIHHKKPSGMVKIHQMDSELSVLA
notes: as for B3
EC50 (read off the curve) [4]: ~0.02 µg/mL
binding result [3]: no binding

B9: CD86 mutant clone 1047, gamma2/gamma4 fusion (Fc fusion)
chain: APLKIQAYFNETADLPCQFANSQNLSLSELVVFWQDQENLVLNEVYLGKEKFDSVDSKYMGRTSFDSDSWTLRLHNLQIKDKGIYQCIIHHKKPTGLVKIHEMNSELSVLA
notes: as for B3
binding result [3]: no binding

B10: CD86 mutant clone 1038, gamma2/gamma4 fusion (Fc fusion)
chain: APLKIQAYFNETADLPCQFANSQNLSLSELVVFWQDQENLVLNEVYLGKEKFDSVDSKYMGRTSFDSDSWTLRLHNLQIKDKGIYQCIIHHKKPTGMVKIHEMNSELSVLA
notes: as for B3
EC50 (read off the curve) [2]: ~0.1 µg/mL
binding result [3]: no binding

B11: Bispecific polypeptide 956/530 (bispecific antibody, human IgG1, kappa)
light: QSVLTQPPSASGTPGQRVTISCSGSSSNIGSNTVNWYQQLPGTAPKLLIYRNNQRPSGVPDRFSGSKSGTSASLAISGLRSEDEADYYCAAWDDSLSGWRFGGGTKLTVLGGTVAAPSVFIFPPSDEQLKSGTASVVCLLNNFYPREAKVQWKVDNALQSGNSQESVTEQDSKDSTYSLSSTLTLSKADYEKHKVYACEVTHQGLSSPVTKSFNRGECSGGGGSGGGGSLKIQAYFNETADLPCQFANSQNQSLSELIVFWQDQENLVLNEVYLGKERFDAVDSKYMGRTSFDSDSWTLRLHNLQIKDKGIYQCIIHHKKPSGMVKIHQMDSELSVLA
heavy: not shown
binding result [5]: binds

B12: Bispecific polypeptide 957/530 (bispecific antibody, human IgG1, kappa)
light: QSVLTQPPSASGTPGQRVTISCSGSSSNIGSNTVNWYQQLPGTAPKLLIYRNNQRPSGVPDRFSGSKSGTSASLAISGLRSEDEADYYCAAWDDSLSGWRFGGGTKLTVLGGTVAAPSVFIFPPSDEQLKSGTASVVCLLNNFYPREAKVQWKVDNALQSGNSQESVTEQDSKDSTYSLSSTLTLSKADYEKHKVYACEVTHQGLSSPVTKSFNRGECSGGGGSGGGGSAPLKIQAYFNETADLPCQFANSQNQSLSELIVFWQDQENLVLNEVYLGKERFDAVDSKYMGRTSFDSDSWTLRLHNLQIKDKGIYQCIIHHKKPSGMVKIHQMDSELSVLA
heavy: not shown
EC50 (read off the curve) [5]: ~0.2 µg/mL

B13: Bispecific polypeptide 958/531 (bispecific antibody, human IgG1, kappa)
heavy: not shown
light: QSVLTQPPSASGTPGQRVTISCSGSSSNIGSNTVNWYQQLPGTAPKLLIYRNNQRPSGVPDRFSGSKSGTSASLAISGLRSEDEADYYCAAWDDSLSGWRFGGGTKLTVLGGTVAAPSVFIFPPSDEQLKSGTASVVCLLNNFYPREAKVQWKVDNALQSGNSQESVTEQDSKDSTYSLSSTLTLSKADYEKHKVYACEVTHQGLSSPVTKSFNRGEC
binding result [6]: binds

B14: Bispecific polypeptide 959/530 (bispecific antibody, human IgG1, kappa)
light: LKIQAYFNETADLPCQFANSQNQSLSELIVFWQDQENLVLNEVYLGKERFDAVDSKYMGRTSFDSDSWTLRLHNLQIKDKGIYQCIIHHKKPSGMVKIHQMDSELSVLAKRTVAQSVLTQPPSASGTPGQRVTISCSGSSSNIGSNTVNWYQQLPGTAPKLLIYRNNQRPSGVPDRFSGSKSGTSASLAISGLRSEDEADYYCAAWDDSLSGWRFGGGTKLTVLGGTVAAPSVFIFPPSDEQLKSGTASVVCLLNNFYPREAKVQWKVDNALQSGNSQESVTEQDSKDSTYSLSSTLTLSKADYEKHKVYACEVTHQGLSSPVTKSFNRGEC
heavy: not shown
binding result [6]: binds

B15: Bispecific polypeptide 960/530 (bispecific antibody, human IgG1, kappa)
light: LKIQAYFNETADLPCQFANSQNQSLSELIVFWQDQENLVLNEVYLGKERFDAVDSKYMGRTSFDSDSWTLRLHNLQIKDKGIYQCIIHHKKPSGMVKIHQMDSELSVLANFSQPQSVLTQPPSASGTPGQRVTISCSGSSSNIGSNTVNWYQQLPGTAPKLLIYRNNQRPSGVPDRFSGSKSGTSASLAISGLRSEDEADYYCAAWDDSLSGWRFGGGTKLTVLGGTVAAPSVFIFPPSDEQLKSGTASVVCLLNNFYPREAKVQWKVDNALQSGNSQESVTEQDSKDSTYSLSSTLTLSKADYEKHKVYACEVTHQGLSSPVTKSFNRGEC
heavy: not shown
binding result [6]: binds

B16: isolated polypeptide of amino acid sequence SEQ ID NO: 8 (soluble CTLA-4 binding domain reference 904) (ligand)
chain: LKIQAYFNETADLPCQFANSQNQSLSELIVFWQDQENLVLNEVYLGKERFDAVDSKYMGRTSFDSDSWTLRLHNLQIKDKGIYQCIIHHKKPSGMVKIHQMDSELSVLA
notes: Control in the CD40 ELISA
binding result [7]: no binding (tested: 100 ng/ml (not on the sheet))
